Reference: PMC9172071, “Peach fruit PpNAC1 activates PpFAD3-1 transcription to provide ω-3 fatty acids for the synthesis of short-chain flavor volatiles”

Target: GST-PpNAC1 (Prunus persica (peach), UniProt M5WG30 1-363)
Assay: EMSA; LightShift Chemiluminescent EMSA kit (Thermo Fisher); buffer, salt, pH and temperature not stated (refers to previous study)
Settings: protein: recombinant; tags: GST (N-terminal, pGEX-4T-1); chain copies: 2; blunt

Sequence of GST-PpNAC1 (M5WG30 entry or part of it): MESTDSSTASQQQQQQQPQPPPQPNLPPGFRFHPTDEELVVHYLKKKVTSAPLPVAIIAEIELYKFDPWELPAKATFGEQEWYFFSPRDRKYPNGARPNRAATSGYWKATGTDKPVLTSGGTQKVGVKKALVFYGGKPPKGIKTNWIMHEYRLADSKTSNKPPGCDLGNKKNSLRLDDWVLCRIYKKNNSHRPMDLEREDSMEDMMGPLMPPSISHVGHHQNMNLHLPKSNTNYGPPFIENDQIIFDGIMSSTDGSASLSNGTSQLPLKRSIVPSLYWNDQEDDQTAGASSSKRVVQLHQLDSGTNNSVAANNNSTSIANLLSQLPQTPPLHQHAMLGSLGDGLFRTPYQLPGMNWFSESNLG

B1: Mutant-Probe1 (dsDNA)
DNA 1: AACCCCGCAGCAGCGTGCACTTTACCTGGTG
DNA 2: CACCAGGTAAAGTGCACGCTGCTGCGGGGTT
B1: no binding.
